Biological target: C3b (Homo sapiens, UniProt P01024)
Experiment: AlphaAssay

Sequence of C3b (P01024 23-667, chain 1 of 2): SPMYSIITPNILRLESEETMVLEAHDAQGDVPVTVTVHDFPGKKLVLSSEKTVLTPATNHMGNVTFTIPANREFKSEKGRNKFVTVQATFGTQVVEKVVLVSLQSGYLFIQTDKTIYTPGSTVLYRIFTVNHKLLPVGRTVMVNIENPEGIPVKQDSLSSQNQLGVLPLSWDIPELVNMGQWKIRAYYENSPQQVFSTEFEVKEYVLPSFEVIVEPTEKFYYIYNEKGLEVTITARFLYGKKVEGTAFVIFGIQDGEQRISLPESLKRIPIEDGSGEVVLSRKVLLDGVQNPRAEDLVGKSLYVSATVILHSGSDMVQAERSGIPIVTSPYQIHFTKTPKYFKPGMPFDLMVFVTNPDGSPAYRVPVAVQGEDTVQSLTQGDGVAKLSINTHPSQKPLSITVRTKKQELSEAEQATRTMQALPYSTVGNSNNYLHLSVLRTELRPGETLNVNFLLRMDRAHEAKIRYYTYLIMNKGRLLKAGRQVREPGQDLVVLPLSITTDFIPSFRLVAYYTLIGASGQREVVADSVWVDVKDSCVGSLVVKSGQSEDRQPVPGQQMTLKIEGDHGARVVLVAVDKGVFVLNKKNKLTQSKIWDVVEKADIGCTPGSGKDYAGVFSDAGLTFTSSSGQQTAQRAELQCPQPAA
Sequence of C3b (P01024 749-1663, chain 2 of 2): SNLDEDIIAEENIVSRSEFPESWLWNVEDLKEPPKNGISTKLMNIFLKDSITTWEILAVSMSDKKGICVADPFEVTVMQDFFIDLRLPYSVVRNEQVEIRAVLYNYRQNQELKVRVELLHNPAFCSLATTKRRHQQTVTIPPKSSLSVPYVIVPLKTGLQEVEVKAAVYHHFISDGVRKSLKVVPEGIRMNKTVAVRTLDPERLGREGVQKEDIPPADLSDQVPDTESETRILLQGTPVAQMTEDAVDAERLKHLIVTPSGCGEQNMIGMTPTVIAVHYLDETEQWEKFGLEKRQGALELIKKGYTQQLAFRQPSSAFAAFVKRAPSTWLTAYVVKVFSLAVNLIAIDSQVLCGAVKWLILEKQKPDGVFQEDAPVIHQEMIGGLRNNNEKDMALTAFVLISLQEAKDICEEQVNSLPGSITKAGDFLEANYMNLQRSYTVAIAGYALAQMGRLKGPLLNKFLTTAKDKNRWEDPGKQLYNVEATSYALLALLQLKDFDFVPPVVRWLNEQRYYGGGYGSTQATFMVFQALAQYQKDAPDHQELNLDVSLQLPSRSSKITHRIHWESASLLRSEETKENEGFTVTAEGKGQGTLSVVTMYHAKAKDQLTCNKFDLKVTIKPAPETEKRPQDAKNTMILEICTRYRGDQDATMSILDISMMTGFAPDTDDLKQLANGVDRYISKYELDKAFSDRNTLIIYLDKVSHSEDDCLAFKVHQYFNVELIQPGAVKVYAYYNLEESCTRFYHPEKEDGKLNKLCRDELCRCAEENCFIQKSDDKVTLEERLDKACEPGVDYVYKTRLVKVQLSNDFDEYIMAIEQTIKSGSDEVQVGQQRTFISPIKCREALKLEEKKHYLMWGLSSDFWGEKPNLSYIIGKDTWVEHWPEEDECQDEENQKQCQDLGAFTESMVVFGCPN

B1: SCIN-A (protein)
chain: STSLPTSNEYQNEKLANELKSLLDELNVNELATGSLNTYYKRTIKISGQKAMYALKSKDFKKMSEAKYQLQKIYNEIDEALKSKY
With B1 the Kd was 74 nM.
